B1: bFGF photoaptamer (ssDNA)
DNA: GCGAAGGCACACCGAGTTCATAGTATCCCA
modifications: BrdU at the five n positions (17, 18, 22, 25, 27), replacing T [n positions 17,18,21,24,26 = modified dU]
B2: bFGF native aptamer (ssDNA)
DNA: B1 DNA

Columns and labels:
[1] = molecular target: T1, FGFb (fibroblast growth factor-basic, bFGF, FGF2) (UniProt P09038 P09038:143-288); assay: Ru(bpy)3 2+/APS visible-light cross-linking; urea gel and printed aptamer array with anti-FGF ELF detection; complex stable to 1N NaOH 1% SDS when cross-linked
T1 sequence (P09038 143-288, one chain of several): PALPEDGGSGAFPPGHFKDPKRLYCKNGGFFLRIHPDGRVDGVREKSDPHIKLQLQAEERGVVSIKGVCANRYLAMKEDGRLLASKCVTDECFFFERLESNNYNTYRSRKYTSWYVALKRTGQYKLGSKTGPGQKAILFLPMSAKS
Excerpt: bFGF photoaptamer (GCG AAG GCA CAC CGA GXX CAX AGX AXC CCA, where X=BrdU; SEQ ID NO:1) was mixed with FGFb ligand overnight to achieve maximal aptamer-ligand binding. White light-mediated photolysis of tris-bipyridylruthenium (II) complex was employed to cross-link the aptamer to the ligand in the presence of APS. The solution was then boiled in the presence of urea-SDS to dissociate bound but uncross-linked ligand from the aptamer. The mixture was subsequently applied to a urea slab gel to separate free aptamer from the cross-linked aptamer-ligand complex by electrophoresis. SYBR Gold staining was used to determine the presence of the aptamer, while double-staining with silver stain was used to determine the presence of the ligand. Referring to FIG. 1, the test sample consisted of bFGF photoaptamer and fibroblast growth factor-basic (FGFb) ligand; the control sample consisted of only bFGF photoaptamer. The test and control samples were incubated overnight prior to PICUP (photo-induced cross-linking of unmodified proteins)-like cross-linking. The samples (12 ul/each) were run on a 6% TBE-urea gel. […] Both the test and control samples were subject to denaturing conditions (100° C. for 5 minutes in TBE-urea sample buffer) prior to electrophoresis.
In FIG. 2, FGFb ligand was applied to an array of aptamers and incubated for 48 hours to achieve maximal binding. […]

[2] = molecular target: T1, FGFb (fibroblast growth factor-basic, …); assay: printed aptamer array; stated to bind as tightly as the BrdU aptamer; cross-linking avidity lower (curve shifted right) after 1N NaOH 1% SDS
Procedure: FGFb bindings by bFGF photoaptamer and bFGF native aptamer (GCGAAGGCACACCGAGTTCATAGTATCCCA; SEQ ID NO:2) were compared. Referring to FIG. 3, * denotes PICUP-like cross-linking (the left two columns), while the remaining wells represent non-covalent ligand capture (the right two columns). Samples in plates 1* and 7 were treated with 1N NaOH, 1% SDS to remove the non-covalently bound ligand.
This hypothesis was tested by titrating increasing concentrations of FGFb against the two aptamers and plotting binding curves. Referring to FIG. 4, in the left panel, the two left hand side columns of each array were printed with bFGF photoaptamer, while the two right hand side columns were printed with bFGF native aptamer. The eighteen arrays in the left panel were cross-linked using a PICUP-like protocol, whereas the six arrays in the right panel represent non-covalent binding. All wells were treated with 1N NaOH, 1% SDS to strip the non-covalently bound ligand. The displacement of the bFGF native aptamer binding curve (diamonds) to the right of the bFGF photoaptamer curve (squares) confirmed that the cross-linking avidity of the bFGF native aptamer is lower than its BrdU-modified bFGF photoaptamer analog (FIG. 5).

Binder | binding result [1] | binding result [2]
B1 | binds | 
B2 |  | binds

Reference: patent US20060275780, “Cross-linking reagents and uses thereof” (Beckman Coulter, Inc., published 2006)
